# According to article PMC5225881, “Open and compressed conformations of Francisella tularensis ClpP” (Proteins, 2016):
# “And” between values parts separate entries of the source, which are not always exact repeats. Equal entries are not always repeated.
# Target: the molecule itself
# Assay: native gel or EMSA; purified sample applied to a native gel; conditions not given
protein,measurement,value
"Francisella tularensis caseinolytic protease catalytic subunit P (ClpP) (enzyme, also called FtClpP; FtClpP:I; copies: 14) not shown",stoichiometry N,7 and 14
